Data as given in patent US20220268787A1 (JW BIOSCIENCE, published 2022).

What was measured:
Assay in all cases: indirect ELISA, antigen coated at 1 µg/ml
[1] = biological target: T1, CRS (cysteinyl-tRNA synthetase) (UniProt P49589 1-748, limits assumed)
T1 sequence (looked up): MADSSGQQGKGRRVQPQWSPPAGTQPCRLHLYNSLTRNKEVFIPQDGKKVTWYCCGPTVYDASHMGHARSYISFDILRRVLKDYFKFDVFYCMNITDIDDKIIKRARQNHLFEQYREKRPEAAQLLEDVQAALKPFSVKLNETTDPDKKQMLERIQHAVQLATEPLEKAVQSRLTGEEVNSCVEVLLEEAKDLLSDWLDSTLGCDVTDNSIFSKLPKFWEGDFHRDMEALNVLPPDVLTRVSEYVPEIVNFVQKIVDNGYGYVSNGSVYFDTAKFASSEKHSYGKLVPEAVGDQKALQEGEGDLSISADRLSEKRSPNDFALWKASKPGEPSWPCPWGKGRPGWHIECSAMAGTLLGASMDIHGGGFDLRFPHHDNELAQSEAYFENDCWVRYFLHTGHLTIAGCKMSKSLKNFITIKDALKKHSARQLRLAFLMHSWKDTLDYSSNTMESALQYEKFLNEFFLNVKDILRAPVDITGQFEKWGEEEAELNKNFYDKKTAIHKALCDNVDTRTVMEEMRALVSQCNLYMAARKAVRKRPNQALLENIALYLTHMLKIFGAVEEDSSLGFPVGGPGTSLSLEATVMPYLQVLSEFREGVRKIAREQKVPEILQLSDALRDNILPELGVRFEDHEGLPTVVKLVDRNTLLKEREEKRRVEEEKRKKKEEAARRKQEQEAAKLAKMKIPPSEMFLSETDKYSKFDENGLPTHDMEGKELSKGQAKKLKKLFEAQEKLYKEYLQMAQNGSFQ

[2] = biological target: KRS (lysyl tRNA synthetase) (UniProt Q15046 1-597, limits assumed)
Chain of KRS (lysyl tRNA synthetase) (Q15046 whole entry): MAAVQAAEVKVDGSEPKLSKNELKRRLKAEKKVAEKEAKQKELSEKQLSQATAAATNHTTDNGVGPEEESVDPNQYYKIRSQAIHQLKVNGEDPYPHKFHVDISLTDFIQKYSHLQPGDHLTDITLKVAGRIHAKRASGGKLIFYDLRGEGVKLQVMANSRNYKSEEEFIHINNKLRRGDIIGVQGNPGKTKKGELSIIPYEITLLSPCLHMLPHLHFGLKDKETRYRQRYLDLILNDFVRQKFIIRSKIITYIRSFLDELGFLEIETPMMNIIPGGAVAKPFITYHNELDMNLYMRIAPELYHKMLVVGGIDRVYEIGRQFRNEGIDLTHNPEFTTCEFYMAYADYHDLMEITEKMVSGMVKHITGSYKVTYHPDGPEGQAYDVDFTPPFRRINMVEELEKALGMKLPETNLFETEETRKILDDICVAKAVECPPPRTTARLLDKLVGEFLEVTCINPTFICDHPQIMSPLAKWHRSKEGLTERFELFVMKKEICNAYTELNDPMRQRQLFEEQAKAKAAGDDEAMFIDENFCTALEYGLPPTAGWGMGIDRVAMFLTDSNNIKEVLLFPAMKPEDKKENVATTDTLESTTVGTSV

[3] = biological target: T2, AIMP1 (aminoacyl tRNA synthase complex-interacting multifunctional protein 1) (UniProt Q12904 1-312, limits assumed)
T2 construct: also called p43
T2 sequence (looked up): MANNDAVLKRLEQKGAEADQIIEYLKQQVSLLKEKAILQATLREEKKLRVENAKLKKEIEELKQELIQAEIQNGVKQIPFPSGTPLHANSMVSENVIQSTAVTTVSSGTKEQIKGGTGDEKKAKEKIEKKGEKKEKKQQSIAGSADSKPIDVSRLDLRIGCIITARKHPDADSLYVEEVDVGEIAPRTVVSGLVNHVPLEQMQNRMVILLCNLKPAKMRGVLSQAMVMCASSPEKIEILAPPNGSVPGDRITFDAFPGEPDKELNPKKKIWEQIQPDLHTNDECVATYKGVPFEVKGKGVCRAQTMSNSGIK

[4] = biological target: T3, GRS (glycyl tRNA synthetase) (UniProt P41250 55-739, limits assumed)
T3 sequence (looked up): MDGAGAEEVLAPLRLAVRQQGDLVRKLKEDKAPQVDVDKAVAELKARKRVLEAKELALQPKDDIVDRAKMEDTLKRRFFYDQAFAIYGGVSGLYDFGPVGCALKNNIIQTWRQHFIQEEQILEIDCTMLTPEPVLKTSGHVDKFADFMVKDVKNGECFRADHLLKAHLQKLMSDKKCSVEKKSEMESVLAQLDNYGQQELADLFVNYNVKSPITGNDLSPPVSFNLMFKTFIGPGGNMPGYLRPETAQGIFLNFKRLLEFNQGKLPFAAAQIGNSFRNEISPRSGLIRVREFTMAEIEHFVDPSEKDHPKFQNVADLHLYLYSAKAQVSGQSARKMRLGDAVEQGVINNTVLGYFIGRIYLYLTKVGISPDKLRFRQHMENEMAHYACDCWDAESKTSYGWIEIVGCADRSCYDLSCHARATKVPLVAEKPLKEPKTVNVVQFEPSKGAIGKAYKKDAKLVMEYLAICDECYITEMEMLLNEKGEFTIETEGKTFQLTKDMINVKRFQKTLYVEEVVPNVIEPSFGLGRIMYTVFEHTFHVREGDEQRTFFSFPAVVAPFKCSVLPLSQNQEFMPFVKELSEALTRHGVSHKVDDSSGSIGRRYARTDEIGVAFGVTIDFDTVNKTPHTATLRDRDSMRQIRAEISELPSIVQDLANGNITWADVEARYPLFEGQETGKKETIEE

Measured: binding result

B1: 4D10G6 monoclonal antibody (antibody, V domains shown)
VH: EFQLQQSGPELVKPGASVKISCKASGYAFIDYNMNWVKQSNGKSLEWIGVINPNYGTIRYNQKFKGKATLTVDQSSSTAYMQLNSLTSEDSAVYYCAGLLRGYYAMDYWGQGTSVTVSS
VL: QAVVTQESALTTSPGETVTLTCRSSTGAVTTSNYANWVQEKPDHLFTGLIGGTNNRAPGVPARFSGSLIGDKAALTITGAQTEDEAIYFCVLWYSNHWVFGGGTKLTVL
notes: Mouse hybridoma monoclonal (Balb/c), purified from ascites on Protein A or G beads; also called the antibody according to the present invention
no binding (tested: 500 ng/ml): all assays above
